Reference: patent US20070027086A1 (ACTION PHARMA A S, published 2007)
Square brackets hold non-standard residues; d marks the D form. Ends that are not written are not given here.

Assays:
[1] = molecular target: T1, human MC1-receptor (melanocortin 1 receptor) (human, UniProt Q01726 1-317); assay: cell-based or functional assay
[2] = molecular target: T2, human MC5-receptor (human, UniProt P33032 1-325); assay: competition with [^125I]NDP-MSH on COS cells expressing human MC5 receptor; Ki by Cheng-Prusoff
T2 construct: whole, on cells
Method: (§1) Expression of receptor clones. Human MC1- and MC5-receptor DNAs (Chhajlani and Wikberg 1992; Chhajlani et al., 1993), cloned into the expression vector pRc/CMV (InVitrogen Corp., USA), and human MC3- and human MC4-receptor DNAs (Gantz et al., 1993a & b), cloned into the expression vector pCMV/neo, were used. COS cells were grown and transfected with receptor clones as described (Schiöbth et al. 1995, 1996b). After transfection cells were cultivated for 48 h, detached from the Petri dishes, and used for radioligand binding as described (Schiöth et al. 1995, 1996b).
(§2) Binding studies. […] The competition data were analyzed by fitting it to the logistic function using non-linear regression analysis. The Kᵢ-values were then calculated from the thus obtained IC50-values by using the Cheng and Prusoff equation, essentially as described by Schiöth et al. 1995, 1996b.

[3] = molecular target: T3, native mouse MC1-receptor (MSH-receptor of mouse B16 melanoma cells and of mouse RAW 264.7 cells) (mouse, UniProt Q01727 1-315); assay: competition with 0.2 nM [^125I]NDP-MSH on mouse B16-F1 melanoma cells (native mouse MC1 receptor)
T3 construct: whole, on cells; also called B16 melanoma cell MSH-receptor
Method: Assays for MSH-receptor binding was done essentially as described (Xia et al., Cancer Letters, 1996, 98, 157-162), in principle according to earlier described methods (Eberle et al., J. Recept. Res. 1991, 11, 311-322). In brief, collected cells were washed with binding buffer (for composition of binding buffer see below) distributed into 96 well plates and sedimented onto the well bottoms by centrifugation. […] After incubation the plates were put on ice, centrifuged and the cells washed with 0.1 ml of ice-cold binding buffer, centrifuged and the binding buffer was sucked off. The finally sedimented and washed cells were then detached from the plates with 0.2 ml of 0.1 N NaOH. Radioactivity was counted by using a Wallac, Wizard automatic gamma counter. The competition data were analysed by law of massaction computer modelling essentially as described (Bergstrom & Wikberg, Acta Pharmacol. Toxicol. 1986, 59, 270-278).

[4] = molecular target: T4, human MC4-receptor (human, UniProt P32245 1-332); assay: competition with [^125I]NDP-MSH on COS cells expressing human MC4 receptor; Ki by Cheng-Prusoff
T4 construct: whole, on cells
Method: as §1, §2

[5] = molecular target: T5, human MC3-receptor (human, UniProt P41968 1-323); assay: competition with [^125I]NDP-MSH on COS cells expressing human MC3 receptor; Ki by Cheng-Prusoff
T5 construct: whole, on cells
Method: as §1, §2

[6] = molecular target: T1, human MC1-receptor (melanocortin 1 …); assay: competition with [^125I]NDP-MSH on COS cells expressing human MC1 receptor; Ki by Cheng-Prusoff
Method: as §1, §2

[7] = molecular target: T5, human MC3-receptor; assay: ratio of Ki values, competition with [^125I]NDP-MSH on COS-1 cells expressing human MC receptors
Method: as §1, §2

[8] = molecular target: T3, native mouse MC1-receptor (MSH-receptor …); assay: competition with 0.1 nM [^125I]NDP-MSH on mouse RAW 264.7 macrophage cells (native mouse MC1 receptor)
Method: MSH-receptor binding was done essentially as described (Xia et al., Cancer Letters, 1996, 98, 157-162), in principle according to earlier described methods (Eberle et al., J. Recept Res. 1991, 11, 311-322). In brief, the collected cells were washed, distributed into 96 well plates and sedimented onto the well bottoms by centrifugation. […] Radioactivity was counted by using a Wallac, Wizard automatic gamma counter. The competition data were analysed by law of massaction computer modelling essentially as described (Bergstrom & Wikberg, Acta Pharmacol. Toxicol. 1986, 59, 270278).

T1 sequence (Q01726 whole entry): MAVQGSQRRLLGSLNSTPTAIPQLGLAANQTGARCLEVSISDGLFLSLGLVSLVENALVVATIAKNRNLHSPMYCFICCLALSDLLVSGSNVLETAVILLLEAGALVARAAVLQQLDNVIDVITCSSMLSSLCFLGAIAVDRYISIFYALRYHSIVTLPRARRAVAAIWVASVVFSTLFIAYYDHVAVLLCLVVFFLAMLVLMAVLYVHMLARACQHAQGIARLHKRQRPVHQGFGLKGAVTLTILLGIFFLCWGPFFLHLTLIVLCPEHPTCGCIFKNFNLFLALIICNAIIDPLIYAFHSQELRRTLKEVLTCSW
T5 sequence (P41968 whole entry): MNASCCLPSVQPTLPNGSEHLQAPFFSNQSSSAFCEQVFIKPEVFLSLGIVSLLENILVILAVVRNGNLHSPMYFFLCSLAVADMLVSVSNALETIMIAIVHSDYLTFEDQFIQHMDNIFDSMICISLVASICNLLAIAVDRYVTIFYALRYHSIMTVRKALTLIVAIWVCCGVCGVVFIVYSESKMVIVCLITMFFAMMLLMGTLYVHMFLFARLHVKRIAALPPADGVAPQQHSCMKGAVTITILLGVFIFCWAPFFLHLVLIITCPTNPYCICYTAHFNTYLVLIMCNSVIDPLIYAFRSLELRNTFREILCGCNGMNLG
T3 sequence (Q01727 whole entry): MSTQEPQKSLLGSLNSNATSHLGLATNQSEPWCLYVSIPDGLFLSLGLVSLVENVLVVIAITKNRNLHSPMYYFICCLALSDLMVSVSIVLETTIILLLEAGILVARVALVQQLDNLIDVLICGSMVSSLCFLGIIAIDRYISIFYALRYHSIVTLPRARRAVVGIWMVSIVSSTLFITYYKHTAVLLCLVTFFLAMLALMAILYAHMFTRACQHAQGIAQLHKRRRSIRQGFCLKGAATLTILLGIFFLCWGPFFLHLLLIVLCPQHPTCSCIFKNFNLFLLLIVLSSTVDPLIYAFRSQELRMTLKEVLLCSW
T4 sequence (P32245 whole entry): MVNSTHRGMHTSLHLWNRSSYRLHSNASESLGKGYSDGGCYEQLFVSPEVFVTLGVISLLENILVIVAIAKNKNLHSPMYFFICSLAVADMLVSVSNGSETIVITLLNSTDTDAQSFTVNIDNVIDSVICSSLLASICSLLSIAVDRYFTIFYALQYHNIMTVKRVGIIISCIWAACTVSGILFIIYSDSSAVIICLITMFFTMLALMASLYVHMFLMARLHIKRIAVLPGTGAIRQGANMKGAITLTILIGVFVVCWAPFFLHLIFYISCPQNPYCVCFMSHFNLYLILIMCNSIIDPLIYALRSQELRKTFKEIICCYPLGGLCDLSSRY
T2 sequence (P33032 whole entry): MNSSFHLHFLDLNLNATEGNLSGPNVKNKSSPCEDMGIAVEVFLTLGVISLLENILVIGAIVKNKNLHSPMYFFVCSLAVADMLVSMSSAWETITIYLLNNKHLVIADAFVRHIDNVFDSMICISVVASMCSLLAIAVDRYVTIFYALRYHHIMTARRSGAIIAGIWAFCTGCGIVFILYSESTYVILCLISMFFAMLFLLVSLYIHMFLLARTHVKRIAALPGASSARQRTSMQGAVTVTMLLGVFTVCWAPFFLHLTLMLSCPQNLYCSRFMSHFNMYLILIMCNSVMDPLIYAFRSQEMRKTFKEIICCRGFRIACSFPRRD

Binder | % of 10 nM α-MSH (cAMP stimulation, 10 nM) [1] [%] | Fold stimulation of cAMP (10 nM) [1] [fold] | Fold stimulation of cAMP (1 µM) [1] [fold] | Ki [2] [nM] | Ki [3] [nM] | Ki [4] [nM] | Ki [5] [nM] | Ki [6] [nM] | fold lower affinity than for the MC1-receptor [7] [fold] | Ki [8] [nM]
SSIISH[dF]RWGKPV-NH2 (N-terminus assumed; SMILES CC[C@H](C)[C@H](NC(=O)[C@H](CO)NC(=O)[C@@H](N)CO)C(=O)N[C@H](C(=O)N[C@@H](CO)C(=O)N[C@@H](Cc1c[nH]cn1)C(=O)N[C@H](Cc1ccccc1)C(=O)N[C@@H](CCCNC(=N)N)C(=O)N[C@@H](Cc1c[nH]c2ccccc12)C(=O)NCC(=O)N[C@@H](CCCCN)C(=O)N1CCC[C@H]1C(=O)N[C@H](C(N)=O)C(C)C)[C@@H](C)CC, Synthetic 13-residue peptide amide; also called MSO9) [MS09 (Ser-Ser-Ile-Ile-Ser-His-dPhe-Arg-Trp-Gly-Lys-Pro-Val-NH2)] | 89 | 5.5 | 7 | 120 | 0.06 | 40 | 7 | 0.2 | – | –
SSIISHFRWGKPV-NH2 (also: trifluoroacetate salt, Synthetic 13-residue peptide amide, obtained as the trifluoroacetate salt; also called MSO5; compound (3)) [MS05 (Ser-Ser-Ile-Ile-Ser-His-Phe-Arg-Trp-Gly-Lys-Pro-Val-NH2)] | 69 | 4.6 | 6.7 | – | 1 | – | 1360 | 0.76 | 1800 | 1.35
